A short description of data set [1]: Clinical testing of DX-88 for hereditary angioedema (HAE). The data set is classed as in vivo, human. To be noted: treatment of hereditary angioedema, initial data.
A further data set concerns the target T1, HNE (Homo sapiens, UniProt P08246).
T1 sequence (P08246 30-267): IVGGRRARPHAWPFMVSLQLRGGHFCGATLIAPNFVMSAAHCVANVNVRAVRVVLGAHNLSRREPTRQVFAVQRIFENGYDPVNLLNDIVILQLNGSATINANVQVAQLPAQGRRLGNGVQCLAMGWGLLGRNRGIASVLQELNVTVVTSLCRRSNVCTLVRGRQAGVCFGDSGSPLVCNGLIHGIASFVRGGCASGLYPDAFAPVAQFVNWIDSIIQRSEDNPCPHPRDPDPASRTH
The data set can be described thus: HNE-neutralizing activity expected for doubly fused protein. The class given is biochemical. The conditions noted are these: expected value, protein not tested.

For data set [2] the following is noted: rabbit.
From the text: After radiolabeling, the two labeled protein preparations were purified from unbound label by size exclusion chromatography (SEC). Fractions from the SEC column having the highest radioactivity were pooled. The purified, radiolabeled preparations were characterized for specific activity by scintillation counting and for purity by SEC using a Superose-12 column equipped with an in-line radiation detector.
New Zealand White rabbits (ca. 2.5 Kg) were used for clearance measurements, with one animal each used for of the two labeled protein preparations. The radiolabeled preparation was injected into the animal via an ear vein. One blood sample was collected per animal per time point with early time points at approximately 0, 7, 15, 30, and 90 minutes and later time points at 4, 8, 16, 24, 48, 72, 96, 144, 168, and 192 hours. Samples (about 0.5 ml) were collected into anticoagulant (EDTA) tubes. Cells were separated from the plasma/serum fraction by centrifugation. The plasma fraction was divided into two aliquots. One plasma aliquot was stored at −70° C. and the other aliquot was kept at 4° C. for immediate analyses. Sample analyses included radiation counting for clearance rate determinations and SEC chromatography for in vivo stability.
The conditions of data set [3]: about 840 mg, 80 open-heart surgery patients; cited from earlier work.
The conditions of data set [4]: after 8 days of treatment; cited from earlier work.

Positions of bridges follow the written chain, without caps; N, C: chain ends. No end group written: not given here.

In the case of “DX-88: Kunitz domain derived from the first Kunitz domain of human LACI, inhibits human plasma kallikrein; SEQ ID No.: 48 (EAMHSFCAFKADDGPCRAAHPRWFFNIFTRQCEEFIYGGCEGNQNRFESLEECKKMCTRD; DX-88 Kunitz domain peptide)”, the “safety and efficacy in the clinic” value in data set [1] is “safe and effective”. Consider “Dx890-HA-Dx890: albumin fused at both termini to DX-890 via (GGS)4GG linkers; SEQ ID No.: 75”, for which the “HNE-neutralizing activity relative to DX890” value with HNE was ~16%.

Take “EACNLPIVRGPCIAFFPRWAFDAVKGKCVLFPYGGCQGNGNKFYSEKECREYCGVP (disulfide 3-53, 12-36, 28-49) [DX-890]”: the “in vivo stability, SEC analysis of plasma” value in data set [2] is reported as “relatively rapid association of label with higher molecular weight plasma components”. Moreover, in data set [2] (in vivo), the “% α” value came out at 75%, the “% β” value was 25% and the “Clearance Times T1/2α” value is listed as 0.4 min. With “bovine pancreatic trypsin inhibitor [BPTI]”, in data set [3], the “decrease of mean amount transfused” value is reported as 74% and the “reduction of blood loss” value is “almost half”.

B1: Pulmozyme: a recombinant human deoxyribonuclease which reduces mucus viscoelasticity by hydrolyzing DNA in sputum (protein, UniProt P24855 23-282, looked up)
Deoxyribonuclease-1: LKIAAFNIQTFGETKMSNATLVSYIVQILSRYDIALVQEVRDSHLTAVGKLLDNLNQDAPDTYHYVVSEPLGRNSYKERYLFVYRPDQVSAVDSYYYDDGCEPCGNDTFNREPAIVRFFSRFTEVREFAIVPLHAAPGDAVAEIDALYDVYLDVQEKWGLEDVMLMGDFNAGCSYVRPSQWSSIRLWTSPTFQWLIPDSADTTATPTHCAYDRIVVAGMLLRGAVVPDSALPFNFQAAYGLSDQLAQAISDHYPVEVMLK
As for B1, the “effect on pulmonary function” value in data set [4] was “increase FEV1 and FVC”.
